The text below walks through data of paper PMC9342896.

The assay deals with aryl hydrocarbon nuclear receptor translocator 2 (ARNT2), in T-REx293 lysate (human (endogenous in T-REx293)) (UniProt Q9HBZ2).
UniProt Q9HBZ2, sequence (Q9HBZ2 whole entry): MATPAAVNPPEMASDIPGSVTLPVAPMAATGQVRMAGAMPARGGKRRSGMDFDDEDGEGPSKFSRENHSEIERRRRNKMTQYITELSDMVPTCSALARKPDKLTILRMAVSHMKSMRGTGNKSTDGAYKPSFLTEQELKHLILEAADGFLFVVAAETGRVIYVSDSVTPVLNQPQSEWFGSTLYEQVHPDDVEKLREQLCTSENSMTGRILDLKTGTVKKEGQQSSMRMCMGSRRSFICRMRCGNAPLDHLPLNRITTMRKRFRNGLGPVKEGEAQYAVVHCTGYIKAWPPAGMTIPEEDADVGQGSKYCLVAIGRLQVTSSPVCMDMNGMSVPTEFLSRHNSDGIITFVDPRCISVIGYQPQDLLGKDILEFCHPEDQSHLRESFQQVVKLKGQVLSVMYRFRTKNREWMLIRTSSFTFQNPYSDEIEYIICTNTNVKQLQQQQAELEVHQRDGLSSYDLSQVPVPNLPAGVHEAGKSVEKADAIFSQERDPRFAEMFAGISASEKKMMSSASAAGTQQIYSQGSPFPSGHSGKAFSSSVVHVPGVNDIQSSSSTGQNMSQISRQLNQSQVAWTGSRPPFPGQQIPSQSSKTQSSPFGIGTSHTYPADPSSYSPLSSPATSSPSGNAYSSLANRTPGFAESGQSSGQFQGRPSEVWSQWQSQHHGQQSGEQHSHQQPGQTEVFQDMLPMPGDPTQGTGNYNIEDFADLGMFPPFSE

As for “SIM2s-2xHA-3xFLAG W306R variant (natural protein)”, the 6xCME luciferase reporter gene activity compared with WT SIM2s stood at 50 % reduction.
